Consider three molecules from PMC6469041 (BMC Microbiology, 2019).

Data set [1] addresses T1, PhnCDE (strain RS07, phn+3Δ) (Escherichia coli, UniProt A0A140NFA3+P16682).
T1 construct: gene phnD; native chromosomal ABC transporter in intact cells of RS07 (MG1655 ΔpitA ΔugpBAEC ΔpstSCAB-phoU phnE+); phnE is the functional BL21 allele without the 8 bp insertion of K-12; phnC and phnD may be of K-12 or co-transduced from BL21
T1 sequence (P16682 27-338): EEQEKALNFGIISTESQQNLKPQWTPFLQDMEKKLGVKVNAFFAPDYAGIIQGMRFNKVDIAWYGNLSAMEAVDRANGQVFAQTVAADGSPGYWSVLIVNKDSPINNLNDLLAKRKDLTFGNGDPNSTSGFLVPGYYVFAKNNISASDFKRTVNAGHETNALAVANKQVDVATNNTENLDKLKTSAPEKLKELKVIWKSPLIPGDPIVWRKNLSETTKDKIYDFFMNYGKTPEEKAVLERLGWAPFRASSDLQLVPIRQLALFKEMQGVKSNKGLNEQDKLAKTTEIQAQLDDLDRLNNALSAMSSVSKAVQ
T1 sequence (A0A140NFA3 1-259): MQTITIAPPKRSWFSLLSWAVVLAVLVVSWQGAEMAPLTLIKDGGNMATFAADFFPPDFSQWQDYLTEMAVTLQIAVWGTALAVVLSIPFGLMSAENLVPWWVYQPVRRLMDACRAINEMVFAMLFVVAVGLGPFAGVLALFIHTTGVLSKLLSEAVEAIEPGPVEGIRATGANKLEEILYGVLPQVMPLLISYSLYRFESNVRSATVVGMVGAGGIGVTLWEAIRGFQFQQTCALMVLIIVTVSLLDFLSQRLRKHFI
T1 sequence (P16677 1-262 partner): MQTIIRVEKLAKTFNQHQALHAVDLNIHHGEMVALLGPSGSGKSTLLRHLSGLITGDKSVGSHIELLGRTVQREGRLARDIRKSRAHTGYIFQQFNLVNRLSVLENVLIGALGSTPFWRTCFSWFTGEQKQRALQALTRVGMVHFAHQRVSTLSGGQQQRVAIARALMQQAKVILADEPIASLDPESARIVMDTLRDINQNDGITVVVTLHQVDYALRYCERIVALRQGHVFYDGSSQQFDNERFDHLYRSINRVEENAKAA
Nature of the data set: competition of […] uptake by intact cells. It is filed as cell-based. The following applies: 10 µM 32Pi, 4 mM AePn added 50 s later; strain used for this test not named.

Substrate in data set [2]: O=P(O)(O)O
The data set is described as follows: cells, lysate or membranes.

In the case of `NCCP(=O)(O)O` [AePn, aminoethylphosphonate], the “inhibition of Pi uptake at 4 mM” value in data set [1] is given as “addition of AePn strongly inhibited Pi uptake when compared to the control”.

B1: PhnCDE (strain RS07, phn+3Δ) (Escherichia coli BL21(DE3)) (protein)
chain 1: T1 sequence (P16682 27-338)
chain 2: T1 sequence (A0A140NFA3 1-259)
Usually Km stands for the substrate concentration at which the rate is half of its maximum. For B1, in data set [2] (5-20 µM KH2PO4, TG medium (Tris T-salts, glucose) pH 7.5, labelled compound), the Km came to 19.46 µM.

B2: PitA (strain RS04, pitA+3Δ) (Escherichia coli K-12) (protein)
chain: MLHLFAGLDLHTGLLLLLALAFVLFYEAINGFHDTANAVATVIYTRAMRSQLAVVMAAVFNFLGVLLGGLSVAYAIVHMLPTDLLLNMGSSHGLAMVFSMLLAAIIWNLGTWYFGLPASSSHTLIGAIIGIGLTNALMTGTSVVDALNIPKVLSIFGSLIVSPIVGLVFAGGLIFLLRRYWSGTKKRARIHLTPAEREKKDGKKKPPFWTRIALILSAIGVAFSHGANDGQKGIGLVMLVLIGVAPAGFVVNMNATGYEITRTRDAINNVEAYFEQHPALLKQATGADQLVPAPEAGATQPAEFHCHPSNTINALNRLKGMLTTDVESYDKLSLDQRSQMRRIMLCVSDTIDKVVKMPGVSADDQRLLKKLKSDMLSTIEYAPVWIIMAVALALGIGTMIGWRRVATTIGEKIGKKGMTYAQGMSAQMTAAVSIGLASYTGMPVSTTHVLSSSVAGTMVVDGGGLQRKTVTSILMAWVFTLPAAVLLSGGLYWLSLQFL
For the molecule B2, the Km in data set [2] (15-50 µM KH2PO4, TG medium (Tris T-salts, glucose) pH 7.5, labelled compound) was found to be 25.99 µM.
